Measured values reported in PMC2775898 (The EMBO Journal, 2009).
Where no end group is shown, it is not given here. The star is where a group is joined. Biotin = O=C1N[C@H]2[C@H](CS[C@H]2CCCCC(=O)*)N1

Columns and labels:
[1] = target: T1, Tiam1 PHCCEx domain (PH-CC-Ex region, residues 429-702) (mouse, UniProt Q60610 429-702); test: SPR
T1 sequence (looked up): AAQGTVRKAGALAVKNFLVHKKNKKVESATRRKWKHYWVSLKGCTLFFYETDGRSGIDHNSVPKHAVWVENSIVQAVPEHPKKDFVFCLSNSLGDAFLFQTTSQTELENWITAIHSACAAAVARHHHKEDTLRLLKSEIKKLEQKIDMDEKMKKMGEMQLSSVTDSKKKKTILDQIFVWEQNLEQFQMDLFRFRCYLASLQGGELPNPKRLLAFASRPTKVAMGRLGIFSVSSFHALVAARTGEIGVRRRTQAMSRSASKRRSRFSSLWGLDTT

[2] = target: GFP-tagged full-length Par3 (UniProt Q9Z340 1-1337); test: co-IP
Sequence of GFP-tagged full-length Par3 (Q9Z340 whole entry, the tested form may be a part): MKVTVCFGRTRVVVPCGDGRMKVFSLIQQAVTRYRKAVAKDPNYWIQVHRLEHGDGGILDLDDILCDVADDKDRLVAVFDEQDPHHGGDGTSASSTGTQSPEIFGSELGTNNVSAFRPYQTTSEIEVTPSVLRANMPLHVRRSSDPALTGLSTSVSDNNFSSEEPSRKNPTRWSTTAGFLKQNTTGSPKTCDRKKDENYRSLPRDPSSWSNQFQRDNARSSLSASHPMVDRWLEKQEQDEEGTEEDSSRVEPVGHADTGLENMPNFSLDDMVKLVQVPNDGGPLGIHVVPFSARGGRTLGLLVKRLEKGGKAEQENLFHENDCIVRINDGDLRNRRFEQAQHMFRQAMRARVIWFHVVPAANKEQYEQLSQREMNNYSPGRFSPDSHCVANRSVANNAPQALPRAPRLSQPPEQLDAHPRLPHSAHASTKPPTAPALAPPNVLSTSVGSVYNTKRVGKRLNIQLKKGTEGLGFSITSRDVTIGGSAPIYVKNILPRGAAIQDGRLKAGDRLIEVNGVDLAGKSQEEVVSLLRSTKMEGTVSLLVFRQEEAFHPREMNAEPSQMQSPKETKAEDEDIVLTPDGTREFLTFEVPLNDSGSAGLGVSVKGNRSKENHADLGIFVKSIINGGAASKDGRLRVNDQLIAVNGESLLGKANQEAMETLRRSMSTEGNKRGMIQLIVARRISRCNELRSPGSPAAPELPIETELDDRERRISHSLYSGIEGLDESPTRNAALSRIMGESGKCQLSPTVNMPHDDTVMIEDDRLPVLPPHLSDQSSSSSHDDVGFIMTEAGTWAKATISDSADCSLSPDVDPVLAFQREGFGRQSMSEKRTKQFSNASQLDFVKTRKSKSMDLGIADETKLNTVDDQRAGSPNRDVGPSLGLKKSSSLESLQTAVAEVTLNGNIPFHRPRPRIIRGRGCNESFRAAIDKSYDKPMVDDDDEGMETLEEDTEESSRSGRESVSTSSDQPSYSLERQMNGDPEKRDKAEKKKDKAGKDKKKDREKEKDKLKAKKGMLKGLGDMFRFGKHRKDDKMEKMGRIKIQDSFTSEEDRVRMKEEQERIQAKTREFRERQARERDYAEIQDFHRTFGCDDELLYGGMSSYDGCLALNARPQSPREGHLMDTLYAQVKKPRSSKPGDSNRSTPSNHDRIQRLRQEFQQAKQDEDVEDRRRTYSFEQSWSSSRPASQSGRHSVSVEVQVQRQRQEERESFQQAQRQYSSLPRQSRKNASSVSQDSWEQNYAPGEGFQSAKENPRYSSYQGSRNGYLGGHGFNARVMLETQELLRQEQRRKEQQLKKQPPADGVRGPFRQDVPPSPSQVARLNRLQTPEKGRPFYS

[3] = target: T2, Tiam2 PHCCEx domain (PH-CC-Ex region, residues 500-757) (mouse, UniProt Q6ZPF3 500-757); test: SPR
T2 sequence (looked up): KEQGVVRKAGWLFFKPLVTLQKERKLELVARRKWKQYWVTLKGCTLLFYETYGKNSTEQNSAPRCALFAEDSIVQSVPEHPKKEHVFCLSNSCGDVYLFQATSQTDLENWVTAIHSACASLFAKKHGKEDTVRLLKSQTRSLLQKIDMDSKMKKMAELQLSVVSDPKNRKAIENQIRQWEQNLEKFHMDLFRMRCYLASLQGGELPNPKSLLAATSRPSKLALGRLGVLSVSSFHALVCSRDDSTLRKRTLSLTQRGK

[4] = target: T3, Tiam2 PHCCEx domain, alanine mutant Arg691 (mouse, UniProt Q6ZPF3 500-757, alanine mutant Arg691); test: SPR
T3 sequence (looked up): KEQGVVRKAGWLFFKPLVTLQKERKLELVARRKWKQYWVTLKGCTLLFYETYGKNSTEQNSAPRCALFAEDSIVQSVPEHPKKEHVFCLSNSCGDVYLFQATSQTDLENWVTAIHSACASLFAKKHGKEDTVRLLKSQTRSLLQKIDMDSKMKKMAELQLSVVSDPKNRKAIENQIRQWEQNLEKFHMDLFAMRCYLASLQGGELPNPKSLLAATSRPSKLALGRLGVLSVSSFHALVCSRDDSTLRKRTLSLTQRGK

[5] = target: T4, Tiam2 PHCCEx domain, alanine mutant Lys624 (mouse, UniProt Q6ZPF3 500-757, alanine mutant Lys624); test: SPR
T4 sequence (looked up): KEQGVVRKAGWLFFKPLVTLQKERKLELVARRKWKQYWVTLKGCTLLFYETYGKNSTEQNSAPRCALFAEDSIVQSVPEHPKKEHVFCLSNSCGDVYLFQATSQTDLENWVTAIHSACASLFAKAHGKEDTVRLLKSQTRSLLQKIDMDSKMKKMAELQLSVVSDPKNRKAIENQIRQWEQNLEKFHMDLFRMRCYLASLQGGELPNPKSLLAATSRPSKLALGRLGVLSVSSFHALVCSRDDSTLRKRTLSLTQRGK

[6] = target: T5, Tiam2 PHCCEx domain, alanine mutant Lys650 (mouse, UniProt Q6ZPF3 500-757, alanine mutant Lys650); test: SPR
T5 sequence (looked up): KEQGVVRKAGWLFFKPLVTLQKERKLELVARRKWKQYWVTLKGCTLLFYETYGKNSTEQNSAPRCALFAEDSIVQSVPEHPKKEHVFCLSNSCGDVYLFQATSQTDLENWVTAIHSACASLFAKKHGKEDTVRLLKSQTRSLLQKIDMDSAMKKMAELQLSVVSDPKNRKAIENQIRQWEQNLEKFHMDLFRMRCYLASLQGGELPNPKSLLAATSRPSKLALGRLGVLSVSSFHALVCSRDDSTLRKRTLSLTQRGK

[7] = target: T6, Tiam2 PHCCEx domain, alanine mutant Lys653 (mouse, UniProt Q6ZPF3 500-757, alanine mutant Lys653); test: SPR
T6 sequence (looked up): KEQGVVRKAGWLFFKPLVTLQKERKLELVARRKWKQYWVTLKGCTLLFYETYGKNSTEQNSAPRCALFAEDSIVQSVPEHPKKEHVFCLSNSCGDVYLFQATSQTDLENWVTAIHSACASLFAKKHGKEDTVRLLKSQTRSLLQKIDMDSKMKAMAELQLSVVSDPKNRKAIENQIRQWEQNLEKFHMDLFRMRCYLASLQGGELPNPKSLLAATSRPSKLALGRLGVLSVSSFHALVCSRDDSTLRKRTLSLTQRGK

[8] = target: T7, Tiam2 PHCCEx domain, alanine mutant Arg632 (mouse, UniProt Q6ZPF3 500-757, alanine mutant Arg632); test: SPR
T7 sequence (looked up): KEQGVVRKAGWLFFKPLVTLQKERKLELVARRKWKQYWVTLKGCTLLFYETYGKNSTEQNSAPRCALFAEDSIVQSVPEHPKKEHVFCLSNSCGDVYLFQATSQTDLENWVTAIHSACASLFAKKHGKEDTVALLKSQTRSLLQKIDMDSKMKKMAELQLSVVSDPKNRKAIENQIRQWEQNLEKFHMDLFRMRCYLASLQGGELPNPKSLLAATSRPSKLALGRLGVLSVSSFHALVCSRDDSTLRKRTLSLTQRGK

[9] = target: T8, Tiam2 PHCCEx domain, alanine mutant Arg716 (R716A) (mouse, UniProt Q6ZPF3 500-757, R716A); test: SPR
T8 sequence (looked up): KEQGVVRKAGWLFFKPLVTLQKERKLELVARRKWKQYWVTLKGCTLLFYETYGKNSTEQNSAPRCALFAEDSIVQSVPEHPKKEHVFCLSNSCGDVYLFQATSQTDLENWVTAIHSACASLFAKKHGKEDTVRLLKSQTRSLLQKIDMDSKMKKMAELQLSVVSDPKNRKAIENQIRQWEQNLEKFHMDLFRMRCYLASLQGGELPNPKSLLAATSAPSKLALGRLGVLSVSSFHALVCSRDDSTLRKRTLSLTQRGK

[10] = target: T9, Tiam2 PHCCEx domain, alanine mutant Arg693 (R693A) (mouse, UniProt Q6ZPF3 500-757, R693A); test: SPR
T9 sequence (looked up): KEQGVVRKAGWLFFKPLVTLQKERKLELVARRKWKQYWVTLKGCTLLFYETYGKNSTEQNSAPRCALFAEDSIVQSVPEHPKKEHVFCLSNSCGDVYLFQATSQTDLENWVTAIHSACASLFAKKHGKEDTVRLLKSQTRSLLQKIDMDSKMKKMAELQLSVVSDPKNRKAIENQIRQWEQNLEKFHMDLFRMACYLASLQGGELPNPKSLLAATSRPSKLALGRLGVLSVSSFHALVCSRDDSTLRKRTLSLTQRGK

[11] = target: T10, Tiam2 PHCCEx domain, alanine mutant Lys627 (mouse, UniProt Q6ZPF3 500-757, alanine mutant Lys627); test: SPR
T10 sequence (looked up): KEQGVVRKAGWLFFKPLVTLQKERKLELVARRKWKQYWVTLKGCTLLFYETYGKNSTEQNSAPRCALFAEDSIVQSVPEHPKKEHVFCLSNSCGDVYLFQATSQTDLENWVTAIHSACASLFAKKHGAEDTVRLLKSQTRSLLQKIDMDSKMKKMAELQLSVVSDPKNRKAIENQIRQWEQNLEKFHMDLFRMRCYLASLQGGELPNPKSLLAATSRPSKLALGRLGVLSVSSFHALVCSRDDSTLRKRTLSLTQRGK

B1: NMDAR loop I peptide (residues 591-610) (peptide)
peptide: not shown
modifications: biotin on the N-terminus
binding result [1]: binds

B2: HA-tagged full-length Tiam1 with a double mutation (R622A and R645A) (natural protein, UniProt Q60610 1-1591, looked up)
chain: MGNAESQNVDHEFYGEKHASLGRKHTSRSLRLSHKTRRTRHASSGKAIHRNSEVSTRSSSTPSIPQSLAENGLEPFSQEGALDDFGDPIWVDRVDMGLRPVSYTDSSVTPSVDGSIVLTAASVQSMPDSEESRLYGDDATYLAEGGRRQCPYTSNGPTFMETASFKKKRSKSADIWREDSLEFSLSDLSQEHLTSNEEILGSAEEKDCEEARGMETEASPRQLSTCQRANSLGDLYAQKNSGVKANGGPRNRFSSYCRNLVSDIPDLAKHKMPPAAAEETPPYSNYNTLPCRKSHCLSEGATNPQISLSKSMQGRRAKTTQDVNTGEGSEFADSGIEGATTDTDLLSRRSNATNSSYSPPTGRAFVGSDSGSSSTGDRARQGVYENFRRELEMSTTNSESLEEAGSAHSDEQSSGTLSSPGQSDILLTAAQGTVRKAGALAVKNFLVHKKNKKVESATRRKWKHYWVSLKGCTLFFYETDGRSGIDHNSVPKHAVWVENSIVQAVPEHPKKDFVFCLSNSLGDAFLFQTTSQTELENWITAIHSACAAAVARHHHKEDTLRLLKSEIKKLEQKIDMDEKMKKMGEMQLSSVTDSKKKKTILDQIFVWEQNLEQFQMDLFRFACYLASLQGGELPNPKRLLAFASAPTKVAMGRLGIFSVSSFHALVAARTGEIGVRRRTQAMSRSASKRRSRFSSLWGLDTTSKKKQGRPTINQVFGEGTDAVKRSLEGIFDDTVPDGKREKEVVLPSVHQHNPDCDIWVHEYFTPSWFCLPNNQPALTVVRPGDTARDTLELICKTHQLDHSAHYLRLKFLMENRVQFYIPQPEEDIYELLYKEIEICPKVTQNIHIEKSDAAADNYGFLLSSVDEDGIRRLYVNSVKETGLASKKGLKAGDEILEINNRAAGTLNSSMLKDFLSQPSLGLLVRTYPEPEGGVELLENPPHRVDGPVDLGESPLAFLTSNPGHSLSSEQGSSAETAPEEGEGPDLESSDETDHSSKSTEQVAAFCRSLHEMSPSDSSPSPQDATSPQLATTRQLSDADKLRKVICELLETERTYVKDLNCLMERYLKPLQKETFLTQDELDVLFGNLTEMVEFQVEFLKTLEDGVRLVPDLEKLEKVDQFKKVLFSLGGSFLYYADRFKLYSAFCASHTKVPKVLVKAKTDTAFKAFLDAQNPRQQHSSTLESYLIKPIQRVLKYPLLLRELFALTDAESEEHYHLDVAIKTMNKVASHINEMQKIHEEFGAVFDQLIAEQTGEKKEVADLSMGDLLLHTSVIWLNPPASLGKWKKEPELAAFVFKTAVVLVYKDGSKQKKKLVGSHRLSIYEEWDPFRFRHMIPTEALQVRALPSADAEANAVCEIVHVKSESEGRPERVFHLCCSSPESRKDFLKSVHSILRDKHRRQLLKTESLPSAQQYVPFGGKRLCALKGARPAMSRAVSAPSKSLGRRRRRLARNRFTIDSDAISASSPEKEPQQPAGGGDTDRWVEEQFDLAQYEEQDDIKETDILSDDDEFCESLKGASVDRDLQEQLQAASISQRARGRRTLDSHASRMTQLKKQAALSGINGGLESASEEVIWVRREDFAPSRKLNTEI
Par3 binding relative to wild-type Tiam1 [2]: ~65%

Biotin-SQEMVHLVNKEPSETPDQCMTADE (peptide, UniProt P15379-2 327-350, looked up) [CD44 acidic peptide comprising 24 residues (327-350)]
Kd [3]: 920 nM
binding result [1]: binds
binding result [4]: binds
binding result [5]: binds
binding result [6]: binds
binding result [7]: binds
binding result [8]: binds
binding result [9]: binds
binding result [10]: binds
binding result [11]: binds

KPMVDDDDEGMETLEEDTEESSRSGRESVS (peptide, UniProt Q99NH2 931-960, looked up, biotin on the N-terminus) [Par3 acidic cluster peptide (mouse residues 931-960)]
Kd [3]: 380 nM
